In series [1] the target is T1, alpha fetoprotein (AFP) (UniProt P02771 19-609).
T1 sequence: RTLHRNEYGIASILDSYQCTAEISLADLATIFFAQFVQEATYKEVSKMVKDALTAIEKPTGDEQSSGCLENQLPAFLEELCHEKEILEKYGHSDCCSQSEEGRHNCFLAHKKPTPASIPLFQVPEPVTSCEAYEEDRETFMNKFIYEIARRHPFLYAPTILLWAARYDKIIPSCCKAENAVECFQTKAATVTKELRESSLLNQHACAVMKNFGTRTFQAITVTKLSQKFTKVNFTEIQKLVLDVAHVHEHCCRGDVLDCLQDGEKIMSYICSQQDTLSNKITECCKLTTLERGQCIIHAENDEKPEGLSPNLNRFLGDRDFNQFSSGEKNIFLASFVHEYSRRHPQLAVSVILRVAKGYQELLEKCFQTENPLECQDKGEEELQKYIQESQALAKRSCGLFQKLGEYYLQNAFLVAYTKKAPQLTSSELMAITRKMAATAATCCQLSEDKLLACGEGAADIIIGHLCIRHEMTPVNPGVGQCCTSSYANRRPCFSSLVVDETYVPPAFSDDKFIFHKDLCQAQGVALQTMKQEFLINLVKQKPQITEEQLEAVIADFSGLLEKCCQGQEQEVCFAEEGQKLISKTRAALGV
The series is described as follows: electrochemical sensor (DPV), aptamer release from graphene oxide; Ru(NH3)6 3+, GO; PBS (sodium phosphate) 0.01 M, pH 7.4; GO 0.1 mg/mL, aptamer 1 uM, Ru(NH3)6 3+ 50 uM (optimum); temperature not stated. To be noted: protein: commercial.

Series [2] has as its target cancer antigen 153 (CA153) (UniProt P15941 24-1097). The series is described as above. To be noted: protein: commercial.
For series [3], the target named is prostate specific antigen (PSA) (UniProt P07288 25-261). The series is described as above. As to conditions: protein: commercial.
Series [4] deals with T2, C-reactive protein (CRP) (UniProt P02741 19-224).
T2 sequence: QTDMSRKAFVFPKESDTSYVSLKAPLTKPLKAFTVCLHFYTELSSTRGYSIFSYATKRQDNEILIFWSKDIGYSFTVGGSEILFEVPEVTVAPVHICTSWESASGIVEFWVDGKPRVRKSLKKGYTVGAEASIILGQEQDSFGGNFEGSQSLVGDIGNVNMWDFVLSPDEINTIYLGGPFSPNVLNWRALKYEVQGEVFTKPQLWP
Described as above. To be noted: protein: commercial; chain copies: 5.

Series [5] addresses carcinoembryonic antigen (CEA) (UniProt P06731 35-685). The series is described as follows: electrochemical sensor (DPV/CV), aptamer release from graphene oxide; Ru(NH3)6 3+, GO; sensor LOD 14 fg/mL, linear 60 fg/mL-100 ng/mL (not Kd); PBS (sodium phosphate) 0.01 M, pH 7.4; GO 0.1 mg/mL, aptamer 1 uM, Ru(NH3)6 3+ 50 uM (optimum); temperature not stated. To be noted: protein: commercial.

Sequence of cancer antigen 153 (CA153) (P15941 24-1097): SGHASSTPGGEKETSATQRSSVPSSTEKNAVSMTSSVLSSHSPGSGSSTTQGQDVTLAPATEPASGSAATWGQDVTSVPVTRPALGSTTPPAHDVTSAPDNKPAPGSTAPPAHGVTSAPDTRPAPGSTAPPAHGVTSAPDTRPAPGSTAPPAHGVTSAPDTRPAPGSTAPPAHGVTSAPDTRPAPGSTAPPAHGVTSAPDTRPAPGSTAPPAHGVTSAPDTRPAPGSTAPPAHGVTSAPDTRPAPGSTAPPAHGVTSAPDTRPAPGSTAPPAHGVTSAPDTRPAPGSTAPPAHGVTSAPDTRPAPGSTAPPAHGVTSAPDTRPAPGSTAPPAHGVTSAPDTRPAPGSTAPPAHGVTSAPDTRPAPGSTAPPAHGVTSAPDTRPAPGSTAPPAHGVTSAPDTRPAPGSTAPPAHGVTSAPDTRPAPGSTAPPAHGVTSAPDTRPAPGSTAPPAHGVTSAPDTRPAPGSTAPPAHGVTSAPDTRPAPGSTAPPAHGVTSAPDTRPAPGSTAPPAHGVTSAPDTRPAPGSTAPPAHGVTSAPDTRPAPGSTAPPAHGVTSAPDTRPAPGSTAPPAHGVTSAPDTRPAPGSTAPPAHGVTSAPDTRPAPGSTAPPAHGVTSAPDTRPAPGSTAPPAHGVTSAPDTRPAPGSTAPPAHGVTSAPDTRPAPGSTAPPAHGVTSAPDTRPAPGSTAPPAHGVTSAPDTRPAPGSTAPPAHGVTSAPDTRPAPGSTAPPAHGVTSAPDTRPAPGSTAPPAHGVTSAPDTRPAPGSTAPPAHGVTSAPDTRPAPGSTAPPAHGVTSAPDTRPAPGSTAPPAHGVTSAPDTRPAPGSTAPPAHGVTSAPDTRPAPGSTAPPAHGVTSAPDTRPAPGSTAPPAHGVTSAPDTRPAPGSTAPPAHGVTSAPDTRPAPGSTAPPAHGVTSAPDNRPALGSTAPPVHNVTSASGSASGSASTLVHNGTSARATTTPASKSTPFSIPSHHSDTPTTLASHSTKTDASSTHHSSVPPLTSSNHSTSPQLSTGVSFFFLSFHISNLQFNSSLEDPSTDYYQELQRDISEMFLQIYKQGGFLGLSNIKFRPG
Sequence of carcinoembryonic antigen (CEA) (P06731 35-685): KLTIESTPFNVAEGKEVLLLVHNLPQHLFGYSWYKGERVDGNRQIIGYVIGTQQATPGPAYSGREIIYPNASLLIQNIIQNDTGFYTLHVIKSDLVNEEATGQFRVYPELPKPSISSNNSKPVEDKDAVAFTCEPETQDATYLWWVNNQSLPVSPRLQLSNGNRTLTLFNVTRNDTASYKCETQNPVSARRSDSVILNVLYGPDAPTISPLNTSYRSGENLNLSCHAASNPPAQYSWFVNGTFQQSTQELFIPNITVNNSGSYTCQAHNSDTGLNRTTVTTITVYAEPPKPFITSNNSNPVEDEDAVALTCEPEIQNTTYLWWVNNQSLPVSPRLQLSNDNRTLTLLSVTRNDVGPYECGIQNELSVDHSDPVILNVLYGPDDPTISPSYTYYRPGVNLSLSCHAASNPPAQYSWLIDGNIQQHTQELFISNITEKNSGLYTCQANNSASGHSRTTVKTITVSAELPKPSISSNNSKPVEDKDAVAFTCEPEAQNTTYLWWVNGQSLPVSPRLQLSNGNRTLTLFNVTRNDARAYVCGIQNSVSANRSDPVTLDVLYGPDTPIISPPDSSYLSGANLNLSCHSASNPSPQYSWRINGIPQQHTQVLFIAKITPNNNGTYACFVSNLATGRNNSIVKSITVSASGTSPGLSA
Sequence of prostate specific antigen (PSA) (P07288 25-261): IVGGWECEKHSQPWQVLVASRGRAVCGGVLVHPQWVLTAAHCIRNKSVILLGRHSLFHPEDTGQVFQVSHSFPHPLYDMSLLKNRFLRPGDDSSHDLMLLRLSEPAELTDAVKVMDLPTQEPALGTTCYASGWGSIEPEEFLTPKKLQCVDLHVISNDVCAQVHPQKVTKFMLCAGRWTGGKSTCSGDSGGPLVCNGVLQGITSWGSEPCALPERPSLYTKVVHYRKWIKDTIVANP

B1: CEA aptamer (Apt) (ssDNA)
DNA: ATACAGCTTCAATT
modifications: 3'-NH2
For B1, the binding result in series [1] was “no binding”; in series [2], “no binding”; in series [3] it was “no binding”; in series [4] it was “no binding”; in series [5] it was “binds”.

Source of the values: PMC10343182, “Homogeneous Electrochemical Aptamer Sensor Based on Two-Dimensional Nanocomposite Probe and Nanochannel Modified Electrode for Sensitive Detection of Carcinoembryonic Antigen”.
